Where no end group is shown, it is not given here.
T1: rat AT1aR (Rattus norvegicus, UniProt P25095)
T1 construct: ProLink (β-galactosidase enzyme-donor fragment, from the pCMV-ProLink vector)
T1 sequence (P25095 1-359): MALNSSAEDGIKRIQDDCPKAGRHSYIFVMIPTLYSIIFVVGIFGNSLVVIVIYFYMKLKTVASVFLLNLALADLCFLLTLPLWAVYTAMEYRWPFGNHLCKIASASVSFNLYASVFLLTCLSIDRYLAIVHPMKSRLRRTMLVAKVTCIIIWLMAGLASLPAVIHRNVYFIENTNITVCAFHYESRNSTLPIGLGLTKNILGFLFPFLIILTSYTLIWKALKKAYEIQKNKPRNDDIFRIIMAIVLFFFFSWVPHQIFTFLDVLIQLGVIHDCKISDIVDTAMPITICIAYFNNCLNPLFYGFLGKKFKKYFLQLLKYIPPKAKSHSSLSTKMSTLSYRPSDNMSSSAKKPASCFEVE


target: human angiotensin 2 type 1 receptor (human) (UniProt P30556); assay: cell-based or functional assay; conditions: not given
Sequence (P30556 whole entry): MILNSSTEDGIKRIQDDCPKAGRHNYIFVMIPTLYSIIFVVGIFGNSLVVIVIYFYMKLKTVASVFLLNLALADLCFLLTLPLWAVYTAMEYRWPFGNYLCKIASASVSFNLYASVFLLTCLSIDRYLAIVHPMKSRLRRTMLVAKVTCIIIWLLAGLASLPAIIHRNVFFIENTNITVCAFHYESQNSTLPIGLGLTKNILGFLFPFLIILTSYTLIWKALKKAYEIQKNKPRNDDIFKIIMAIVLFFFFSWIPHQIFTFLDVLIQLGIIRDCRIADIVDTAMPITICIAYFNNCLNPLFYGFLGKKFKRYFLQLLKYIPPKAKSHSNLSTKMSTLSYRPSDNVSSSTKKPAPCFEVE

Molecule | IP One EC50 | b-arrestin2 EC50 | b-arrestin2 Max | IP One Max
DRVYFHP-NH2 [SEQ ID NO: 63 (Asp-Arg-Val-Tyr-Phe-His-Pro-NH2)] | > 10000 nM | 530 nM | 35.9% | 
ERVYYHP (N-methyl; C-terminal amide) [SEQ ID NO: 62 (N-Me-Glu-Arg-Val-Tyr-Tyr-His-Pro-NH2)] | > 10000 nM | 1300 nM | 24.7% | 
RVYIHP-NH2 [SEQ ID NO: 13 (Arg-Val-Tyr-Ile-His-Pro-NH2)] | > 10000 nM | 4600 nM | 43.4% | 
RVYYHPI (N-terminal Sar; C-terminal acid) [SEQ ID NO: 14 (Sar-Arg-Val-Tyr-Tyr-His-Pro-Ile-OH)] | 160 nM | 8 nM | 59.3% | 13.5%
RVYVHPI (N-terminal Sar; C-terminal acid) [SEQ ID NO: 11 (Sar-Arg-Val-Tyr-Val-His-Pro-Ile-OH)] | > 10000 nM | 3.4 nM | 58.9% | 
RVYVHPI (N-terminal Sar; C-terminal amide) [SEQ ID NO: 12 (Sar-Arg-Val-Tyr-Val-His-Pro-Ile-NH2)] | 190 nM | 390 nM | 19.9% | 20.7%

target: rat angiotensin 2 type 1 receptor (rat) (UniProt P25095); assay: cell-based or functional assay; conditions: not given

Molecule | IP One EC50 | b-arrestin2 EC50 | b-arrestin2 Max | IP One Max
DRVYFHP-NH2 [SEQ ID NO: 63 (Asp-Arg-Val-Tyr-Phe-His-Pro-NH2)] | > 10000 nM | 530 nM | 50.1% | 
ERVYYHP (N-methyl; C-terminal amide) [SEQ ID NO: 62 (N-Me-Glu-Arg-Val-Tyr-Tyr-His-Pro-NH2)] | > 10000 nM | 3900 nM | 44.2% | 
RVYIHP-NH2 [SEQ ID NO: 13 (Arg-Val-Tyr-Ile-His-Pro-NH2)] | > 10000 nM | 43000 nM | 165% | 
RVYYHPI (N-terminal Sar; C-terminal acid) [SEQ ID NO: 14 (Sar-Arg-Val-Tyr-Tyr-His-Pro-Ile-OH)] | 32 nM | 14 nM | 79% | 19.3%
RVYVHPI (N-terminal Sar; C-terminal acid) [SEQ ID NO: 11 (Sar-Arg-Val-Tyr-Val-His-Pro-Ile-OH)] | 3.5 nM | 6.1 nM | 80.7% | 24.4%
RVYVHPI (N-terminal Sar; C-terminal amide) [SEQ ID NO: 12 (Sar-Arg-Val-Tyr-Val-His-Pro-Ile-NH2)] | 79 nM | 120 nM | 34.4% | 44.9%

target: T1, rat AT1aR; assay: PathHunter β-arrestin-2 recruitment assay, rat AT1aR; type: cell-based; conditions: PathHunter β-arrestin HEK293 cells, inactive = EC50 greater than 10 uM
Description: B-arrestin-2 recruitment to the human and rat angiotensin 2 type 1 receptor (human AT1R and rat AT1aR, respectively) was measured with the PathHunter™ β-arrestin assay (DiscoveRx Corporation, Fremont CA). Cells, plasmid(s), and detection reagent(s) were purchased from DiscoveRx, and assays were performed per the manufacturer's instructions. Human AT1R and rat AT1aR were cloned into the pCMV-ProLink vector, verified by sequencing, and transfected into PathHunter β-arrestin HEK293 cells. Stably transfected clonal cell lines were selected with Hygromycin and G418. These clonal cell lines were used for all experiments.
For assays, 25,000 cells were seeded per well in 96-well microplates in volumes of 90 μL and allowed to grow overnight at 37° C. in 5% CO2. Peptides provided herein were dissolved in deionized water to a concentration of 1 mM. Peptides were then further diluted in assay buffer (Hank's balanced salt solution with 20 mM HEPES) to add peptide to the cells to reach final concentrations ranging from 10 μM to 1 pM. […]
The microplates were then incubated at room temperature for 60 minutes, and then luminescence was measured using a NOVOstar microplate reader purchased from BMG Labtech. B-arrestin-2 recruitment to receptors was measured as relative luminescence intensity expressed in arbitrary units.

Molecule | rat AT1aR b-arrestin2 EC50 (M)
CCCCC(=O)N(Cc1ccc(-c2ccccc2-c2nnn[nH]2)cc1)[C@H](C(=O)O)C(C)C [Valsartan] | inactive

— patent US20240025949A1, “Beta-Arrestin Effectors and Compositions and Methods of Use Thereof” (Trevena, Inc., priority 2021, published 2024)
